The assay has as its target SARS-CoV2 S蛋白受体结合域(RBD) (SARS-CoV2, UniProt P0DTC2 319-541).

B1: 单克隆抗体YK-CoV2-02的Fab (Fab, V domains shown)
VH: QVQLVESGGGLIQPGGSLRLSCAVSGFTVSSNYMSWVRQAPGKGLEWVSVIYPGGSTFYADSVKGRFTISRDNDNSKNTLYLQMNSLRAEDTAVYYCARDWVRGSNWGQGTLVTVSS
VL: EIVLTQSPATLSLSPGERATLSCRASQSVSNYLAWYQQKPGQAPRLLIYDASNRATGIPARFSGSGSGTDFTLTISSLEPEDFAVYYCQERSNWPSGTFGPGTKVDIK
Take B1: binding was characterised by a dissociation constant (Kd) of 4.03 nM.

The record behind these values is patent publication CN112794898A (YIKANG BIOLOGY SUZHOU CO LTD, dated 2021).
